{"source": "patent US12661396B2", "about": "“Selective targeting of the TREML1/MD2 interaction by small peptide or protein and its use for vaccine adjuvants” (Ascendo Biotechnology, Inc., priority 2020, dated 2026)", "key": {"[1]": {"tested_on": "THP1/XBlue/MD2/CD14 cells", "experiment": "TREML1 ECD binding to THP1/XBlue/MD2/CD14 cells and antibody competition (flow cytometry)", "format": "cell-based", "settings": "TREML1 ECD 10 ug/ml, 1 hour; AF647-anti-human TREML1 staining; FIG. 4", "excerpt": "(§1) In addition to the solid phase binding assays, the TREML1 ECD binding was further evaluated using THP1/XBlue/MD2/CD14 cells (InvivoGen, San Diego, USA), which express MD2 and CD14. These cells (InvivoGen, San Diego, USA) are derived from the human monocytic THP1 cell line and express an NF-κB- and AP-1-inducible secreted embryonic alkaline phosphatase (SEAP) reporter gene.\nTo investigate the effects of anti-TLR4 antibody (HTA125, BioLegend #312814) and anti-MD2 antibody (18H10, ThermoFisher #MA5-33351) on TREML1 ECD binding to THP1/XBlue/MD2/CD14 cells, cells were pretreated with anti-MD2 antibody, anti-TLR4 antibody, IgG control, or a combination for 15 min at 37° C. with 5% CO2. After antibodies treatments, cells were treated with TREML1 ECD (10 ug/ml) and incubated for 1 hours. Cells were washed with PBS containing 1% FBS and stained with AF647-anti-human TREML1 antibody, followed by flow cytometric analysis.\nThe cells were resuspended in PBS containing 1% FBS at a density of 2×10^6 cells/ml and non-specific bindings of Abs were blocked using Human Fc Block (BD Biosciences #564220) at room temperature for 10 min. AF647-anti-human TREML1 (clone 268420) (R&D #FAB2394R) antibody was used as a detection antibody of TREML1 binding to cell surface. […] Binding analysis was performed on a CytoFLEX Flow Cytometer (Beckman Coulter) and the collected data were analyzed using Kazula software."}, "[2]": {"tested_on": "Human peripheral blood mononuclear cells (PBMCs)", "experiment": "TLR agonist-induced TNF-α secretion in human PBMCs with or without TREML1 ECD", "format": "cell-based", "settings": "human PBMCs pretreated with hTREML1 10, 5, 1 ug/ml for 30 min", "procedure": "Human peripheral blood samples from healthy volunteer donors were collected by venipuncture bled into ACD vacutainer tubes. Human peripheral blood mononuclear cells (PBMCs), which were separated from whole blood using Ficoll-Paque Plus (GE17-1440-03) according to the manufacturer's instructions. Human peripheral blood mononuclear cells (PBMCs) were pretreated with or without […]1 (10 ug/ml, 5 ug/ml and 1 ug/ml) and incubated for 30 min at 37° C. with 5% CO2. After treatments, cells were stimulated with TLR agonist, including R848 (InvivoGen #tlrl-r848) and ODN2395 (InvivoGen #tlrl-2395), and incubated at 37° C. with 5% CO2 for 18 hr. Supernatants of cell culture medium were collected for TNF-α measurements. Cell supernatants and plasma samples were harvested and stored at -80° C. Human TNFα concentrations were detected using TNF-α DuoSet ELISA kit (R&D #DY210) according to manufacturer's instructions. Signals were developed using 3,3',5,5'-tetramethylbenzidine and the absorbance of 450 nm was detected with a microplate reader."}, "CD14": {"target": "T1, CD14 (Homo sapiens, UniProt P08571)", "T1 sequence (P08571 20-345)": "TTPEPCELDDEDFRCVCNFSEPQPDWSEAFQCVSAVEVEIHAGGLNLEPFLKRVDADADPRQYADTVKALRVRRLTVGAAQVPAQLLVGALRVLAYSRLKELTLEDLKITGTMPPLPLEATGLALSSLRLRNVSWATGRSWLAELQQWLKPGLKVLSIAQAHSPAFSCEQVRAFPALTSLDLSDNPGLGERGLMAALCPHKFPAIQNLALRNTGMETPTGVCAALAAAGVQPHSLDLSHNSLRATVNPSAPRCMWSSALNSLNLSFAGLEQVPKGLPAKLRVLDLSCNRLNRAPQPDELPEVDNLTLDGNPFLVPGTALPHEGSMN", "experiment": "Solid phase binding assay, TREML1 ECD to immobilized CD14", "settings": "absorbance at 450 nm; FIG. 2", "procedure": "(§2) To identify potential binding partners of TREML1 ECD, we used solid phase binding assay to assess interactions between TREML1 ECD and candidate proteins. Briefly, various candidate proteins and BSA (as a negative control) were coated on a 96-well plate and TREML1 ECD at various concentrations were added to the wells. After binding and washing, an anti-TREML1 antibody conjugated with horse radish peroxidase (HRP) was added to each well. After washing, HRP substrate, TMB (3,3′,5,5′-tetramethylbenzidine), was added. After reaction, absorbance at 450 nm was measured to assess TREML1 binding.\n(§3) To investigate the protein-protein interactions. Recombinant TLR4 (5 ug/ml in PBS), MD2 (5 ug/ml in PBS), CD14 (5 ug/ml in PBS), and BSA (negative control) proteins were plated separately on 96-well plates and incubated overnight at 4 degrees Celsius. The blocking buffer (2% BSA in PBS) was added to avoid the nonspecific binding for 2 hr at room temperature. A serial diluted TREML1 ECD (2.5 ug/ml to 156 ng/ml, 2-fold dilutions) solutions were added and allowed to incubate at room temperature for 2 hr. Then, anti-TREML1 antibody (1 ug/ml in PBS) was added for 1 hr. Next, a secondary antibody with HRP labeling, anti-Rat IgG-HRP, was added to the plates and incubated for 30 minutes at room temperature. […] Absorbance at OD450/540 nm was measured with a microplate reader."}, "NF-κB": {"tested_on": "NF-κB", "experiment": "NF-κB activation in THP1/XBlue/MD2/CD14 cells (SEAP reporter, QUANTI-Blue)", "format": "cell-based, human", "settings": "FIG. 5A", "excerpt": "as §1\n(§4) To investigate the effects of anti-TLR4 antibody and anti-MD2 antibody on TREML1 ECD-triggered TLR response, THP1/XBlue/MD2/CD14 cells were pretreated with anti-TLR4 antibody, anti-MD2 antibody, or IgG control for the indicated groups and incubated for 15 minutes at 37° C., 5% CO2. After pretreatments, THP1/XBlue/MD2/CD14 cells were stimulated by TREML1 ECD (10 ug/ml) and seeded at a concentration of 1×10^6 cells/ml (200 ul per well) into wells of a 96-well plate for 18 hr at 37° C., 5% CO2. To determine the NF-κB activation, the supernatants of culture medium were collected and assessed with QUANTI-Blue™ reagent (InvivoGen) according to the manufacturer's instructions."}, "[3]": {"tested_on": "THP1/XBlue/MD2/CD14 cells", "experiment": "TNF-α secretion by THP1/XBlue/MD2/CD14 monocytes (ELISA)", "format": "cell-based, human", "settings": "FIG. 5B", "procedure": "as §4\nCell supernatants and plasma samples were harvested and stored at −80° C. Human TNFα concentrations were detected using TNF-α DuoSet ELISA kit (R&D #DY210) according to manufacturer's instructions. Signals were developed using 3,3′,5,5′-tetramethylbenzidine and the absorbance of 450 nm was detected with a microplate reader."}, "TLR4": {"target": "TLR4 (Homo sapiens, UniProt O00206)", "sequence (O00206 24-839)": "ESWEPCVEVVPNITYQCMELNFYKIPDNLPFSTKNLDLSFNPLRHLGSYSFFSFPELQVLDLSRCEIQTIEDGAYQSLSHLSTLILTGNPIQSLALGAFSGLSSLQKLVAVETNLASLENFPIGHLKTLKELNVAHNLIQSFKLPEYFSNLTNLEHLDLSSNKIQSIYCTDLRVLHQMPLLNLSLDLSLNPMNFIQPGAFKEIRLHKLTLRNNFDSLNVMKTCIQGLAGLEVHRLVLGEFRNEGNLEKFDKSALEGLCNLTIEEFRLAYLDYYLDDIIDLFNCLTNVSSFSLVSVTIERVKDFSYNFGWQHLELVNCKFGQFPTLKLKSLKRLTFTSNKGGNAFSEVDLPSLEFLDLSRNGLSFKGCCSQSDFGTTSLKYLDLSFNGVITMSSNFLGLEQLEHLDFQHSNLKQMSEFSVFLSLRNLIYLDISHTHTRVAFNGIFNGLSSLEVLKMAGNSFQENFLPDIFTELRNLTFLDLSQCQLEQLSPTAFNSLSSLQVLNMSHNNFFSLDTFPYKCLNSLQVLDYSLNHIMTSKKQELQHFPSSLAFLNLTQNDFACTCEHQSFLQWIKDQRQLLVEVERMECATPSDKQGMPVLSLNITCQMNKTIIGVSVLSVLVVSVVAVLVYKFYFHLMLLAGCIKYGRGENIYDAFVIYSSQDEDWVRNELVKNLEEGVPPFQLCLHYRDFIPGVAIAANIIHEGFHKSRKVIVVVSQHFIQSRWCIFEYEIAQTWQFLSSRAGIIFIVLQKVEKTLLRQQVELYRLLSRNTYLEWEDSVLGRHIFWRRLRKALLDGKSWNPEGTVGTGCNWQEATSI", "experiment": "Solid phase binding assay, TREML1 ECD to immobilized TLR4", "settings": "absorbance at 450 nm; TREML1 ECD 2.5 ug/ml to 156 ng/ml; FIG. 2", "procedure": "as §2, §3"}, "MD2": {"target": "T2, MD2 (Homo sapiens, UniProt Q9Y6Y9)", "T2 sequence (Q9Y6Y9 19-160)": "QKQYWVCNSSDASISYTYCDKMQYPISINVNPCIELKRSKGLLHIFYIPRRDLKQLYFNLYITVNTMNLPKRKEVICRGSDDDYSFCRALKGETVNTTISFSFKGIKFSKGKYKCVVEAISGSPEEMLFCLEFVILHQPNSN", "experiment": "Solid phase binding assay, TREML1 ECD to immobilized MD2", "settings": "absorbance at 450 nm; TREML1 ECD 2.5 ug/ml to 156 ng/ml; FIG. 2", "procedure": "as §2, §3"}}}
{"molecule": "TREML1 ECD: human TREML1 extracellular domain, SEQ ID NO:1; recombinant, E. coli, polyhistidine tag at the N-terminus (protein, N-terminal polyhistidine tag; homo sapiens, recombinant, E. coli, polyhistidine tag at the N-terminus) QGIVGSLPEVLQAPVGSSILVQCHYRLQDVKAQKVWCRFLPEGCQPLVSSAVDRRAPAGRRTFLTDLGGGLLQVEMVTLQEEDAGEYGCMVDGARGPQILHRVSLNILPPEEEEETHKIGSLAENAFSDPAGSANPLEPSQDEKSIP", "values": [{"measurement": "binding to THP1/XBlue/MD2/CD14 cells", "setting": "[1]", "value": "can bind to the THP1/XBlue/MD2/CD14 cells"}, {"measurement": "effect on R848 (TLR7/8)-induced TNF-α secretion", "setting": "[2]; FIG. 7A", "value": "enhanced in the presence of TREML1 ECD"}, {"measurement": "effect on ODN 2395 (TLR9)-induced TNF-α secretion", "setting": "[2]; FIG. 7B", "value": "enhanced in the presence of TREML1 ECD in a dose-dependent manner"}, {"measurement": "TREML1 ECD binding to immobilized CD14", "setting": "CD14", "value": "does not bind to CD14"}, {"measurement": "NF-κB activation in THP1/XBlue/MD2/CD14 monocytes", "setting": "NF-κB", "value": "induced activation of NF-κB"}, {"measurement": "TNF-α secretion by THP1/XBlue/MD2/CD14 monocytes", "setting": "[3]", "value": "induces THP1/XBlue/MD2/CD14 monocyte activation"}, {"measurement": "TREML1 ECD binding to immobilized TLR4", "setting": "TLR4", "value": "binds MD2 and TLR4 in a concentration-dependent manner"}, {"measurement": "TREML1 ECD binding to immobilized MD2", "setting": "MD2", "value": "binds MD2 and TLR4 in a concentration-dependent manner"}]}
